Source: the Human Domainome abundance scans (Beltran et al. 2025)
± gives the uncertainty stated by the source.

B1: Zinc finger homeobox protein 3, residues 2244 to 2299; numbered along this chain, Q15911 (parent)
chain: SSRTRFTDYQLRVLQDFFDANAYPKDDEFEQLSNLLNLPTRVIVVWFQNARQKARK

Variants of: B1
Assay: abundance fitness (aPCA) (normalised: wild type 0, dead -1); higher = more abundant; growth selection in yeast, the domain comes from the species named
Details: Homo sapiens
For SSRTRFTDYQLRVLQDFFDANAYPKDDCFEQLSNLLNLPTRVIVVWFQNARQKARK [E28C], the abundance fitness was -0.539 ± 0.2. Variant SSRTRFTDYQLRVLQDFFDANAYPKDDEFEQLSNLLNLPTRVIVVWFQNARQYARK [K53Y] has an abundance fitness of -0.12 ± 0.091. SSRPRFTDYQLRVLQDFFDANAYPKDDEFEQLSNLLNLPTRVIVVWFQNARQKARK [T4P] showed an abundance fitness of -0.154 ± 0.12. For SSRTRFTDYQLRVLQDFFDANAYPKDCEFEQLSNLLNLPTRVIVVWFQNARQKARK [D27C], the abundance fitness was -0.294 ± 0.11. With SSRTRFTDYQLRVLQDFFDANAYPKDDEFEQLSNLLNLPTRVIVVWFQYARQKARK [N49Y] the abundance fitness was -0.497 ± 0.25. Variant SSRTRFTDYQLRVLQKFFDANAYPKDDEFEQLSNLLNLPTRVIVVWFQNARQKARK [D16K] has an abundance fitness of -0.179 ± 0.16. SSRTRFTDYQLRVAQDFFDANAYPKDDEFEQLSNLLNLPTRVIVVWFQNARQKARK [L14A] showed an abundance fitness of -0.668 ± 0.12. For SSRTRFTDYQLDVLQDFFDANAYPKDDEFEQLSNLLNLPTRVIVVWFQNARQKARK [R12D], the abundance fitness was 0.024 ± 0.087. For SSRTRFTDYQLRVLQYFFDANAYPKDDEFEQLSNLLNLPTRVIVVWFQNARQKARK [D16Y], the abundance fitness was -0.797 ± 0.24. SSRTRFTDYQLRVLQDFFDANAYPKDDEFESLSNLLNLPTRVIVVWFQNARQKARK [Q31S] gave an abundance fitness of -0.082 ± 0.11. For SSRTRFTDYQLRVLQDFFDANAYPKDDEFEQLSNLLNLPTRVIVIWFQNARQKARK [V45I], the abundance fitness was -0.055 ± 0.098. SSRTRFTDYQLRVLQDFFDANAYPKDDEFEQLSNLLNLPTRIIVVWFQNARQKARK [V42I] showed an abundance fitness of -0.022 ± 0.33. Work on SSRTRFTDYQLRVLQDFFDANAYPKDDEFEQLSNLLNLPTYVIVVWFQNARQKARK [R41Y] yielded an abundance fitness of -0.119 ± 0.096. Variant SSRTRFTDYQLRVLQDFFDANAYPKDDEFEQLSNMLNLPTRVIVVWFQNARQKARK [L35M] has an abundance fitness of 0.085 ± 0.13. Work on SSRTRFTDYQLRVLQDFFDANAYPKDDEFEQLSNLLNLPTRVIVVWFQNARQKGRK [A54G] yielded an abundance fitness of 0.081 ± 0.26. SSRTRFSDYQLRVLQDFFDANAYPKDDEFEQLSNLLNLPTRVIVVWFQNARQKARK [T7S] gave an abundance fitness of -0.186 ± 0.092. SSRTRFTDYQLRVLQDFFDANAYPLDDEFEQLSNLLNLPTRVIVVWFQNARQKARK [K25L] gave an abundance fitness of -0.136 ± 0.084. In the case of SSRTRFTDYQFRVLQDFFDANAYPKDDEFEQLSNLLNLPTRVIVVWFQNARQKARK [L11F], the abundance fitness is reported as -0.364 ± 0.14. With SSRTRFTDYQLRVLQDFFDANAYPKDDEFEQCSNLLNLPTRVIVVWFQNARQKARK [L32C] the abundance fitness was -0.641 ± 0.14. With SSRTRFTDYQLRVLQDFFDINAYPKDDEFEQLSNLLNLPTRVIVVWFQNARQKARK [A20I] the abundance fitness was -0.405 ± 0.21. Work on SSRTRFTDYQCRVLQDFFDANAYPKDDEFEQLSNLLNLPTRVIVVWFQNARQKARK [L11C] yielded an abundance fitness of -0.743 ± 0.16. SSRTRFTDYQLRVLQDFFDANAYPKDDEFEQLSNLLNLPTRVIVVWFQNARDKARK [Q52D] gave an abundance fitness of 0.239 ± 0.12. For SSRTRFTDYQLRVLQDFFDANAYPKDDEFEQLVNLLNLPTRVIVVWFQNARQKARK [S33V], the abundance fitness was -0.452 ± 0.1. Variant SSRTRFTDYQLRVLQDFFDANAYPKDDEFEQLSNLLNLVTRVIVVWFQNARQKARK [P39V] has an abundance fitness of -1.09 ± 0.14. Variant SSRTRFGDYQLRVLQDFFDANAYPKDDEFEQLSNLLNLPTRVIVVWFQNARQKARK [T7G] has an abundance fitness of -0.487 ± 0.074. For SSRTRFTDYQLRVLQDFFDANAYPKDDEPEQLSNLLNLPTRVIVVWFQNARQKARK [F29P], the abundance fitness was -0.915 ± 0.17. In the case of SSRTRFTDYQLRVLQDFFDANAYPKDDEFEQLSNLLNLPTRVIVVWFQPARQKARK [N49P], the abundance fitness is reported as -0.986 ± 0.2. In the case of SVRTRFTDYQLRVLQDFFDANAYPKDDEFEQLSNLLNLPTRVIVVWFQNARQKARK [S2V], the abundance fitness is reported as 0.042 ± 0.1. SSRTRFTDYQLRVLQDFFDANAYPKDDEFEQLSNLLPLPTRVIVVWFQNARQKARK [N37P] gave an abundance fitness of -0.831 ± 0.19. SSRTRFTDYSLRVLQDFFDANAYPKDDEFEQLSNLLNLPTRVIVVWFQNARQKARK [Q10S] gave an abundance fitness of -0.445 ± 0.091. Variant SSRTRFTDYQLRVLQDFFDANAYPKDDEFEQLSNLLNLPTRVIVVWFQNARQLARK [K53L] has an abundance fitness of -0.013 ± 0.07. With SSRTRFTDYQLRVNQDFFDANAYPKDDEFEQLSNLLNLPTRVIVVWFQNARQKARK [L14N] the abundance fitness was -0.953 ± 0.25. Variant SSRTRFTDYQLRVLQDFFDANAYPKDDEFEQLSNLLNLPTRVILVWFQNARQKARK [V44L] has an abundance fitness of -0.005 ± 0.11. Variant SSRTRFTDYQLRVLQDFADANAYPKDDEFEQLSNLLNLPTRVIVVWFQNARQKARK [F18A] has an abundance fitness of -0.279 ± 0.086. In the case of SSRTRFTDYQLRVLQDFFDANAYPKPDEFEQLSNLLNLPTRVIVVWFQNARQKARK [D26P], the abundance fitness is reported as -0.163 ± 0.14. SSRTRFTDYQLRVLQHFFDANAYPKDDEFEQLSNLLNLPTRVIVVWFQNARQKARK [D16H] showed an abundance fitness of 0.033 ± 0.15. SSRTRFTDQQLRVLQDFFDANAYPKDDEFEQLSNLLNLPTRVIVVWFQNARQKARK [Y9Q] showed an abundance fitness of 0.211 ± 0.16. In the case of SSRTRFTDYQLRVLQDFFDANAYPKDDEFEQLSNLLNLPTRVIVVWFQNARQTARK [K53T], the abundance fitness is reported as -0.008 ± 0.078. For SSRTRFTDYQLRVLQDFFDANAYHKDDEFEQLSNLLNLPTRVIVVWFQNARQKARK [P24H], the abundance fitness was -0.927 ± 0.43. For SSRTRFTWYQLRVLQDFFDANAYPKDDEFEQLSNLLNLPTRVIVVWFQNARQKARK [D8W], the abundance fitness was -0.401 ± 0.14. CSRTRFTDYQLRVLQDFFDANAYPKDDEFEQLSNLLNLPTRVIVVWFQNARQKARK [S1C] gave an abundance fitness of 0.079 ± 0.21. SSRTRFTDYQLCVLQDFFDANAYPKDDEFEQLSNLLNLPTRVIVVWFQNARQKARK [R12C] gave an abundance fitness of -0.531 ± 0.096. Work on SSRTRFTDYQLRVLQDFFDANAYPKDDEFEQLSNLLNLPTRVIVVWFQNARQKAPK [R55P] yielded an abundance fitness of 0.051 ± 0.075. SSRTRFTDYQLRVLQDFFDANAYPKDDQFEQLSNLLNLPTRVIVVWFQNARQKARK [E28Q] showed an abundance fitness of -0.169 ± 0.13. SSRTRFTDYQLRVLQDFEDANAYPKDDEFEQLSNLLNLPTRVIVVWFQNARQKARK [F18E] showed an abundance fitness of -0.579 ± 0.12. Variant SSRTRFTDYQLRVLQDFFDANAYPKDDEFEQLSNLLNLPTRVIVVWLQNARQKARK [F47L] has an abundance fitness of -0.639 ± 0.088. Variant SSRTRFTDYQLRVLQDFMDANAYPKDDEFEQLSNLLNLPTRVIVVWFQNARQKARK [F18M] has an abundance fitness of -0.298 ± 0.14.
